According to patent US20260062463A1 (KANGYUAN BIOMEDICAL TECH DALIAN, published 2026):
Substitutions are numbered along the chain they refer to.

T1: AAV8 (adeno-associated virus 8, Assembled 60-mer capsid of VP1/VP2/VP3 (nested products of one cap gene), amine-coupled to a CM5 chip; the letters give one VP1 subunit only.)
T1 construct: also called adeno-associated virus serotype 8
T1 chain: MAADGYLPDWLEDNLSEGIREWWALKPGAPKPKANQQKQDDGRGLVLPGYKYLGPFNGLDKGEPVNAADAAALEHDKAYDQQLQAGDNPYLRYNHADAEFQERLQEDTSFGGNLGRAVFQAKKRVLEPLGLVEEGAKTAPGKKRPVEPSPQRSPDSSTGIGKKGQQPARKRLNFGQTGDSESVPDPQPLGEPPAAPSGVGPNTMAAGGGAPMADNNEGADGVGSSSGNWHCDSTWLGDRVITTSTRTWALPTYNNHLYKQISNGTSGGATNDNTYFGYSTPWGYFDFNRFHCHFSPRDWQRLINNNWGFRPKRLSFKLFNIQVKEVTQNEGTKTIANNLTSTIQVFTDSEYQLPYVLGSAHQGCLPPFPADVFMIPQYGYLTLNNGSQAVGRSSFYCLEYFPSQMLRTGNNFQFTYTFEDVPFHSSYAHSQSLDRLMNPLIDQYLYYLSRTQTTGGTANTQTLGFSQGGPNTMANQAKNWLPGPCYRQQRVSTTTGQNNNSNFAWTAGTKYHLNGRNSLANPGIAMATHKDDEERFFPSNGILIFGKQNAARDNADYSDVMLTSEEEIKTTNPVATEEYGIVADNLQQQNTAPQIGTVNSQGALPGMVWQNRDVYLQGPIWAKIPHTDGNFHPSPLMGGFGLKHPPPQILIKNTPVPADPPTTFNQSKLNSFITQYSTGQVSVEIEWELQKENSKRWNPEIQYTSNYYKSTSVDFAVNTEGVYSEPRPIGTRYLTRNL

B1: A4-052 (VHH)
VHH: VQLQESGGGLVQPGGSLRLSCAASGSIFIINTMGWYRQAPGKQRELVAAVTRGGSTNYADSVKGRFTISRDNAKNTVYLQMNSLRPEDTAVYYCHVDEVRQSSWTTSNLWGQGTQVTVSS
B2: A4-C4 (bispecific antibody)
chain: VQLQESGGGLVQAGGSLRLSCAASGSRFSINTMGWYRQAPGKQREFVATVTRGGNTNYAESVKGRFTISRDNAKNTVYLQMNSLRPEDTAVYYCHVDEVRDSSWTTSNIWGQGTQVTVSSGGGGSGGGGSGGGGSVQLQESGGGLVQAGGSLRLSCAASGSRFSINTMGWYRQAPGKQREFVATVTRGGNTNYAESVKGRFTISRDNAKNTVYLQMNSLRPEDTAVYYCHVDEVRDSSWTTSNIWGQGTQVTVSSGGGGSGGGGSGGGGSVQLQESGGGLVQPGGSLRLSCAASGSNFRINTMGWYRQAPGKQRELVATVTRGGSTNYADSVKGRFTISRDNPKDTVYLQMNSLRPEDTAVYYCHVDEVRESSWTTSNLWGQGTQVTVSS
B3: A4-C2 (VHH)
chain: VQLQESGGGLVQPGGSLRLSCAASGSAFSINTMGWYRQAPGKQRELVASVTPGGSTNYADSVKGRFTISRDNAKNTIYLQMNSLRPEDTAVYYCHLDEVRESSWTTSNLWGQGTQVTVSSGGGGSGGGGSGGGGSVQLQESGGGLVQPGGSLRLSCAASGSAFSINTMGWYRQAPGKQRELVASVTPGGSTNYADSVKGRFTISRDNAKNTIYLQMNSLRPEDTAVYYCHLDEVRESSWTTSNLWGQGTQVTVSSGGGGSGGGGSGGGGSVQLQESGGGLVQPGGSLRLSCAASGSAFSINTMGWYRQAPGKQRELVASVTPGGSTNYADSVKGRFTISRDNAKNTIYLQMNSLRPEDTAVYYCHLDEVRESSWTTSNLWGQGTQVTVSS
B4: A4-C9 (bispecific antibody)
chain: VQLQESGGGLVQPGGSLRLSCAASGSNFSINTMGWYRQAPGKQRELVATVTRGGDTNYADSVKGRFTISRDNAKNTVYLQMNSLRPEDTAVYYCHVDEIRESSWTTSNLWGQGTQVTVSSGGGGSGGGGSGGGGSVQLQESGGGLVQPGGSLRLSCAASGSNFSINTMGWYRQAPGKQRELVAALTRGGSTNYADSVKGRFTISRDNAKNTVYLQMNSLRPEDTAVYYCHVDEVRESSWTTSNLWGQGTQVTVSSGGGGSGGGGSGGGGSVQLQESGGGLVQPGGSLRLSCAASGSNFRINTMGWYRQAPGKQRELVAPVTRGGSTNYADSVKGRFTISRDNAKNTVYLQMNSLRPEDTAVYYCHVDEVRESSWTTSNLWGQGTQVTVSS
B5: A4-C5 (bispecific antibody)
chain: B4 chain with S29R, D55S, A73P, I99V, A184T, L185V, S190D, V234I, P319T, A343P
B6: A4-C7 (bispecific antibody)
chain: B4 chain with S164R, A184P, L185V, N297S, R299T, P319A, D330G, V347I, V369I, E371Q
B7: A4-C6 (bispecific antibody)
chain: B4 chain with S29R, T49P, D55S, I99V, R299S, P319T, S325D, V369I
B8: A4-C8 (bispecific antibody)
chain: VQLQESGGGLVQPGGSLRLSCAASGSNFRINTMGWYRQAPGKQRELVAPVTRGGSTNYADSVKGRFTISRDNAKNTVYLQMNSLRPEDTAVYYCHVDEVRESSWTTSNLWGQGTQVTVSSGGGGSGGGGSGGGGSVQLQESGGGLVQPGGSLRLSCAASGSNFSINTMGWYRQAPGKQRELVATVTRGGDTNYADSVKGRFTISRDNAKNTVYLQMNSLRPEDTAVYYCHVDEIRESSWTTSNLWGQGTQVTVSSGGGGSGGGGSGGGGSVQLQESGGGLVQPGGSLRLSCAASGSNFSINTMGWYRQAPGKQRELVAALTRGGSTNYADSVKGRFTISRDNAKNTVYLQMNSLRPEDTAVYYCHVDEVRESSWTTSNLWGQGTQVTVSS
B9: A4-D5 (other)
chain: VQLQESGGGLVQPGGSLRLSCVASGSSFSINTMGWYRRAPGKQRELVATVTRDGSTNYANSVKGRFTISRDNAKNTVYLQMNSLRPEDTAVYYCHVDEVRQSSWTTSNLWGQGTQVTVSSGGGGSGGGGSGGGGSVQLQESGGGLVQPGGSLRLSCVASGSSFSINTMGWYRRAPGKQRELVATVTRDGSTNYANSVKGRFTISRDNAKNTVYLQMNSLRPEDTAVYYCHVDEVRQSSWTTSNLWGQGTQVTVSSGGGGSGGGGSGGGGSVQLQESGGGLVQPGGSLRLSCVASGSSFSINTMGWYRQAPGKQRELVATVTRDGSTNYANSVKGRFTISRDNAKNTVYLQMNSLRPEDTAVYYCHVDEVRQSSWTTSNLWGQGTQVTVSSGGGGSGGGGSGGGGSVQLQESGGGLVQPGGSLRLSCVASGSSFSINTMGWYRRAPGKQRELVATVTRDGSTNYANSVKGRFTISRDNAKNTVYLQMNSLRPEDTAVYYCHVDEVRQSSWTTSNLWGQGTQVTVSS
B10: A4-D2 (VHH)
chain: VQLQESGGGLVQAGGSLRLSCAASGRGFSINTMGWYRQAPGKQRELVAAVTRGGTTNYADSVKGRFTISRDNAKNTVYLQMNSLRPEDTAVYYCHVDEVRQSSWTTSNLWGQGTQVTVSSGGGGSGGGGSGGGGSVQLQESGGGLVQAGGSLRLSCAASGRGFSINTMGWYRQAPGKQRELVAAVTRGGTTNYADSVKGRFTISRDNAKNTVYLQMNSLRPEDTAVYYCHVDEVRQSSWTTSNLWGQGTQVTVSSGGGGSGGGGSGGGGSVQLQESGGGLVQAGGSLRLSCAASGRGFSINTMGWYRQAPGKQRELVAAVTRGGTTNYADSVKGRFTISRDNAKNTVYLQMNSLRPEDTAVYYCHVDEVRQSSWTTSNLWGQGTQVTVSSGGGGSGGGGSGGGGSVQLQESGGGLVQAGGSLRLSCAASGRGFSINTMGWYRQAPGKQRELVAAVTRGGTTNYADSVKGRFTISRDNAKNTVYLQMNSLRPEDTAVYYCHVDEVRQSSWTTSNLWGQGTQVTVSS
B11: A4-C1 (VHH)
chain: VQLQESGGGLVQPGGSLRLSCAASGSGFSINTMGWYRQAPGKQRELVATVTRDGSTNYADFVKGRFTISRDNAKNTVYLQMNSLRPEDTAVYYCHLDEVRESSWTTSNLWGQGTQVTVSSGGGGSGGGGSGGGGSVQLQESGGGLVQPGGSLRLSCAASGSGFSINTMGWYRQAPGKQRELVATVTRDGSTNYADFVKGRFTISRDNAKNTVYLQMNSLRPEDTAVYYCHLDEVRESSWTTSNLWGQGTQVTVSSGGGGSGGGGSGGGGSVQLQESGGGLVQPGGSLRLSCAASGSGFSINTMGWYRQAPGKQRELVATVTRDGSTNYADFVKGRFTISRDNAKNTVYLQMNSLRPEDTAVYYCHLDEVRESSWTTSNLWGQGTQVTVSS

The binders below were run against T2, AAV8 (adeno-associated virus 8) (assay: SPR, AAV on CM5 chip).
T2 construct: also called adeno-associated virus serotype 8
Procedure: AAV was amine-coupled to a CM5 sensor chip at a density of 500-800 response units (RU). Nanobodies were injected at seven concentrations (1-100 nM) with a flow rate of 45 μL/min, and chip regeneration was performed using glycine-HCl (pH 1.5).
B1 gave a kon of 31800 M⁻¹ s⁻¹.

Target: T1, AAV8
Experiment: SPR, AAV amine-coupled to CM5 chip
B2 gave a Kd of 2360 pM, a koff of 0.00025 s⁻¹ and a kon of 106000 M⁻¹ s⁻¹. With B3 the Kd was 359 pM, the koff was 5e-05 s⁻¹ and the kon was 139000 M⁻¹ s⁻¹. In the case of B4, the Kd is reported as 1140 pM, the koff is reported as 0.00013 s⁻¹ and the kon is reported as 114000 M⁻¹ s⁻¹. B5 showed a Kd of 4970 pM, a koff of 0.00091 s⁻¹ and a kon of 183000 M⁻¹ s⁻¹. Work on B6 yielded a Kd of 3700 pM, a koff of 0.00047 s⁻¹ and a kon of 127000 M⁻¹ s⁻¹. Work on B7 yielded a Kd of 2670 pM, a koff of 0.00044 s⁻¹ and a kon of 165000 M⁻¹ s⁻¹. B8 was tested, and the Kd was 2810 pM, the koff was 0.00037 s⁻¹ and the kon was 132000 M⁻¹ s⁻¹. B9 gave a Kd of 83.6 pM, a koff of 5e-06 s⁻¹ and a kon of 59800 M⁻¹ s⁻¹. With B10 the Kd was 82.1 pM, the koff was 3.6e-06 s⁻¹ and the kon was 43900 M⁻¹ s⁻¹. Work on B11 yielded a Kd of 9200 pM, a koff of 0.00164 s⁻¹ and a kon of 178000 M⁻¹ s⁻¹.

What follows are binders tested against T3, AAV5 (adeno-associated virus 5, Assembled 60-mer capsid of VP1/VP2/VP3 (nested products of one cap gene), amine-coupled to a CM5 chip; the letters give one VP1 subunit only.) (assay: SPR, AAV amine-coupled to CM5 chip).
T3 construct: also called adeno-associated virus serotype 5
Work on B2 yielded a Kd of 6720 pM, a koff of 0.00121 s⁻¹ and a kon of 180000 M⁻¹ s⁻¹. B3 gave a Kd of 691 pM, a koff of 0.000134 s⁻¹ and a kon of 194000 M⁻¹ s⁻¹. B4 showed a Kd of 777 pM, a koff of 5e-05 s⁻¹ and a kon of 64300 M⁻¹ s⁻¹. With B5 the Kd was 7860 pM, the koff was 0.0013 s⁻¹ and the kon was 165000 M⁻¹ s⁻¹. B6 gave a Kd of 73.2 pM, a koff of 3.2e-05 s⁻¹ and a kon of 437000 M⁻¹ s⁻¹. In the case of B7, the Kd is reported as 785 pM, the koff is reported as 0.000139 s⁻¹ and the kon is reported as 177000 M⁻¹ s⁻¹. Binder B8 has a Kd of 690 pM, a koff of 0.00013 s⁻¹ and a kon of 188000 M⁻¹ s⁻¹. With B9 the Kd was 318 pM, the koff was 1.34e-05 s⁻¹ and the kon was 42100 M⁻¹ s⁻¹. B10 gave a Kd of 99.6 pM, a koff of 5.7e-06 s⁻¹ and a kon of 57200 M⁻¹ s⁻¹. With B11 the Kd was 13200 pM, the koff was 0.00138 s⁻¹ and the kon was 104000 M⁻¹ s⁻¹.

Each binder was assayed against T4, AAV9 (adeno-associated virus 9, Assembled 60-mer capsid of VP1/VP2/VP3 (nested products of one cap gene), amine-coupled to a CM5 chip; the letters give one VP1 subunit only.) (assay: SPR, AAV amine-coupled to CM5 chip).
T4 construct: also called adeno-associated virus serotype 9
B2 showed a Kd of 1870 pM, a koff of 0.00031 s⁻¹ and a kon of 165000 M⁻¹ s⁻¹. B3 was tested, and the Kd was 486 pM, the koff was 0.000125 s⁻¹ and the kon was 257000 M⁻¹ s⁻¹. For B4, the Kd was 669 pM, the koff was 0.00013 s⁻¹ and the kon was 194000 M⁻¹ s⁻¹. B5 showed a Kd of 1680 pM, a koff of 0.0002 s⁻¹ and a kon of 119000 M⁻¹ s⁻¹. For B6, the Kd was 127 pM, the koff was 1.75e-05 s⁻¹ and the kon was 137000 M⁻¹ s⁻¹. B7 showed a Kd of 550 pM, a koff of 2.5e-05 s⁻¹ and a kon of 45400 M⁻¹ s⁻¹. B8 was tested, and the Kd was 279 pM, the koff was 5e-05 s⁻¹ and the kon was 179000 M⁻¹ s⁻¹. B9 was tested, and the Kd was 117 pM, the koff was 4.3e-06 s⁻¹ and the kon was 36900 M⁻¹ s⁻¹. B10 was tested, and the Kd was 304 pM, the koff was 9e-06 s⁻¹ and the kon was 29600 M⁻¹ s⁻¹. Work on B11 yielded a Kd of at most 1030 pM, a koff of at most 1e-05 s⁻¹ and a kon of 9690 M⁻¹ s⁻¹.
